Experiments:
[1] = system: oxhide-derived atelo-collagen; test: Gelation of atelo-collagen solutions; assay type: biochemical, ox; set-up: key: .smallcircle.: gelled; Δ: weakly gelled; x: remained as solution; conditions: 0.05 U/mg protein; for Gelation, Immediately After Completion of Incubation: 55° C. 60 minutes; for Gelation, After Heating at 100° C.: 100° C. 15 minutes; for Gelation, After Allowing to Stand for 60 Minutes: room temperature
Experimental: A necessary amount of oxhide-derived atelo-collagen powders (manufactured by Kouken K.K.) were taken in a test tube and 2 ml of 0.1M Tris-HCl buffer (pH 7.5) was added thereto. After maintaining in a water bath at 55° C. for 15 minutes, the mixture was stirred to prepare 3 to 10% atelo-collagen solutions. Before the solutions of high concentration were gelled due to cooling, BTGase was added thereto in 0.05 U/mg protein followed by incubation at 55° C. for 60 minutes. As a control for the all samples, 10% atelo-collagen solution with no BTGase added was also incubated likewise. Immediately after completion of the incubation, the system was allowed to stand at room temperature for 60 minutes. Then the system was further kept in a water bath of 100° C. for 15 minutes and then the condition in the test tube was observed.

[2] = Measurement of BTGase activity (hydroxamate method); assay type: biochemical; conditions: freeze dried product prepared in Example 1
Experimental: Measurement of the activity of BTGase is carried out by performing a reaction using benzyloxycarbonyl-L-glutaminyl glycine and hydroxylamine as substrates in the absence of Ca^2+, forming an iron complex with the resulting hydroxamic acid in the presence of trichloroacetic acid, measuring absorption at 525 nm and determining the amount of hydroxamic acid by a calibration curve to calculate the activity. The BTGase activity is measured by the method described below, unless otherwise indicated.
To 0.05 ml of an enzyme solution is added 0.5 ml of Reagent A and they are mixed with each other. After reacting at 37° C. for 30 minutes, Reagent B is added thereto to discontinue the reaction and form an Fe complex. Thereafter, absorbance is measured at 525 nm. As a control, absorbance is measured after reacting a previously thermally inactivated enzyme solution in a similar manner and a difference in absorbance between the control and the enzyme solution is measured. Separately, a calibration curve is prepared using L-glutamic acid γ-monohydroxamio acid instead of the enzyme solution, and the amount of hydroxamic acid produced is determined by the difference in absorbance described above. An enzyme activity which produces 1 μmol of hydroxamic acid per 1 minute is defined as 1 unit.

Gelatin [3] = test: Gelatin gel after heating in boiling water bath; assay type: biochemical; set-up: key: x: complete solution; .smallcircle.: gelled condition (not dissolved even after heating); conditions: 0.02 U/mg protein, 37° C. 1 h, then boiling water bath 10 minutes
Experimental: 0.1M Tris-HCl buffer (pH 7.6) was added to gelatin (manufactured by Nitta Gelatin Co., Ltd.) so as to form 5.10 wt. % solution. Gelatin was completely dissolved at 60° C. for 3 minutes and the same BTGase as that of Example 4 was added to the solution in 0.02 U/mg protein. After thoroughly mixing, the mixture was reacted at 37° C. for an hour and then heated in a boiling water bath for 10 minutes. Immediately thereafter, the condition was observed.
For purposes of comparison, the system which was identically treated except for adding no BTGase was used as control.

[4] = system: Acid-precipitated soybean protein; test: Gelation, test tube inversion method; assay type: biochemical; set-up: key: .smallcircle.: gelled; Δ: weakly gelled; x: remained as solution; conditions: BTGase 0.02 U/mg protein, 55° C., 1 h, MTGase 0.1 U/mg, 37° C.
Experimental: (§1) 1) The BTGase (freeze dried product, specific activity of 2.50 Units/mg protein) prepared in Example 1 was added to 5 ml of each of 5 and 10 wt. % solutions or suspensions of protein foodstuffs prepared by the method described in Example 1 of Published Unexamined Japanese Patent Application No. 149645/83 or purchased, namely, (1) αsi -casein, (2) Na-caseinate, (3) soybean 11S globulin, (4) soybean 7S globulin, (5) soybean protein isolate "Ajipron S-2" (manufactured by Ajinomoto Co., Inc.), (6) water-extracted soybean protein, (7) acid-precipitated soybean protein, (8) soybean protein particles, (9) soybean protein micelles and (10) gelatin in 0.02 U per 1 mg of protein followed by shake incubation at 55° C. for an hour. After allowing to stand at room temperature, test tubes with samples were turned upside down, whereby gelation was determined by noting whether the samples drifted down or not.
(§2) For purposes of comparison, the results of gelation ability test with MTGase are also shown. The amount of MTGase added was 0.1 U per 1 mg of substrate protein.

[5] = system: Water-extracted soybean protein; test: Gelation, test tube inversion method; assay type: biochemical; set-up: key: .smallcircle.: gelled; Δ: weakly gelled; x: remained as solution; conditions: BTGase 0.02 U/mg protein, 55° C., 1 h, MTGase 0.1 U/mg, 37° C.
Experimental: as §1, §2

Gelatin [6] = test: Gelation, test tube inversion method; assay type: biochemical; set-up: key: .smallcircle.: gelled; Δ: weakly gelled; x: remained as solution; conditions: BTGase 0.02 U/mg protein, 55° C., 1 h, MTGase 0.1 U/mg, 37° C.
Experimental: as §1, §2

Soybean 7S globulin = test: Gelation, test tube inversion method; assay type: biochemical; set-up: key: .smallcircle.: gelled; Δ: weakly gelled; x: remained as solution; conditions: BTGase 0.02 U/mg protein, 55° C., 1 h, MTGase 0.1 U/mg, 37° C.
Experimental: as §1, §2

αS1 -Casein = test: Gelation, test tube inversion method; assay type: biochemical; set-up: key: .smallcircle.: gelled; Δ: weakly gelled; x: remained as solution; conditions: BTGase 0.02 U/mg protein, 55° C., 1 h, MTGase 0.1 U/mg, 37° C.
Experimental: as §1, §2

Soybean protein micells = test: Gelation, test tube inversion method; assay type: biochemical; set-up: key: .smallcircle.: gelled; Δ: weakly gelled; x: remained as solution; conditions: BTGase 0.02 U/mg protein, 55° C., 1 h, MTGase 0.1 U/mg, 37° C.
Experimental: as §1, §2

[7] = system: Soybean protein particles; test: Gelation, test tube inversion method; assay type: biochemical; set-up: key: .smallcircle.: gelled; Δ: weakly gelled; x: remained as solution; conditions: BTGase 0.02 U/mg protein, 55° C., 1 h, MTGase 0.1 U/mg, 37° C.
Experimental: as §1, §2

Soybean 11S globulin = test: Gelation, test tube inversion method; assay type: biochemical; set-up: key: .smallcircle.: gelled; Δ: weakly gelled; x: remained as solution; conditions: BTGase 0.02 U/mg protein, 55° C., 1 h, MTGase 0.1 U/mg, 37° C.
Experimental: as §1, §2

[8] = system: Ajipron S-2 (soybean protein isolate); test: Gelation, test tube inversion method; assay type: biochemical; set-up: key: .smallcircle.: gelled; Δ: weakly gelled; x: remained as solution; conditions: BTGase 0.02 U/mg protein, 55° C., 1 h, MTGase 0.1 U/mg, 37° C.
Experimental: as §1, §2

Na-Caseinate = test: Gelation, test tube inversion method; assay type: biochemical; set-up: key: .smallcircle.: gelled; Δ: weakly gelled; x: remained as solution; conditions: BTGase 0.02 U/mg protein, 55° C., 1 h, MTGase 0.1 U/mg, 37° C.
Experimental: as §1, §2

B1: BTGase: microorganism-derived transglutaminase; in Examples 4-11 the freeze dried product prepared in Example 1 (S. mobaraense, i.e. BTG-1) (protein, UniProt P81453 77-407, looked up)
Protein-glutamine …: DSDDRVTPPAEPLDRMPDPYRPSYGRAETVVNNYIRKWQQVYSHRDGRKQQMTEEQREWLSYGCVGVTWVNSGQYPTNRLAFASFDEDRFKNELKNGRPRSGETRAEFEGRVAKESFDEEKGFQRAREVASVMNRALENAHDESAYLDNLKKELANGNDALRNEDARSPFYSALRNTPSFKERNGGNHDPSRMKAVIYSKHFWSGQDRSSSADKRKYGDPDAFRPAPGTGLVDMSRDRNIPRSPTSPGEGFVNFDYGWFGAQTEADADKTVWTHGNHYHAPNGSLGAMHVYESKFRNWSEGYSDFDRGAYVITFIPKSWNTAPDKVKQGWP
2.50 Units/mg protein: specific activity [2]
.smallcircle.: Gelation, Immediately After Completion of Incubation ([1]; 3% Solution) | Gelation, After Heating at 100° C. ([1]; 3% Solution) | Gelation, After Allowing to Stand for 60 Minutes ([1]; 3% Solution) | Gelation, Immediately After Completion of Incubation ([1]; 5% Solution) | Gelation, After Heating at 100° C. ([1]; 5% Solution) | Gelation, After Allowing to Stand for 60 Minutes ([1]; 5% Solution) | Gelation, Immediately After Completion of Incubation ([1]; 10% Solution) | Gelation, After Heating at 100° C. ([1]; 10% Solution) | Gelation, After Allowing to Stand for 60 Minutes ([1]; 10% Solution) | Condition of 5% Gelatin, +BTG (Gelatin [3]) | Condition of 10% Gelatin, +BTG (Gelatin [3]) | Gelation, Acid-precipitated soybean protein 5% ([4]; 5%) | Gelation, Acid-precipitated soybean protein 10% ([4]; 10%) | Gelation, Water-extracted soybean protein 5% ([5]; 5%) | Gelation, Water-extracted soybean protein 10% ([5]; 10%) | Gelation, Gelatin 5% (Gelatin [6]; 5%) | Gelation, Gelatin 10% (Gelatin [6]; 10%) | Gelation, Soybean 7S globulin 5% (Soybean 7S globulin; 5%) | Gelation, Soybean 7S globulin 10% (Soybean 7S globulin; 10%) | Gelation, αS1 -Casein 5% (αS1 -Casein; 5%) | Gelation, αS1 -Casein 10% (αS1 -Casein; 10%) | Gelation, Soybean protein micells 10% (Soybean protein micells; 10%) | Gelation, Soybean protein particles 5% ([7]; 5%) | Gelation, Soybean protein particles 10% ([7]; 10%) | Gelation, Soybean 11S globulin 5% (Soybean 11S globulin; 5%) | Gelation, Soybean 11S globulin 10% (Soybean 11S globulin; 10%) | Gelation, Ajipron S-2 5% ([8]; 5%) | Gelation, Ajipron S-2 10% ([8]; 10%) | Gelation, Na-Caseinate 5% (Na-Caseinate; 5%) | Gelation, Na-Caseinate 10% (Na-Caseinate; 10%)
Δ: Gelation, Soybean protein micells 5% (Soybean protein micells; 5%)
